Experimental data from publication PMC4050729.
pEC50: −log10 of the molar value.

Columns and labels:
[1] = molecular target: ribosome nascent chain complex bearing the 3A7L signal sequence, nascent chain of 85 residues, Cm-labeled (UniProt P0ADZ0); assay: other fluorescence titration
[2] = molecular target: ribosome nascent chain complex bearing the 3A7L signal sequence, nascent chain of 85 residues, Cm-labeled (UniProt P0ADZ0); assay: FRET or BRET

pEC50 [1] | fold weaker binding than wt SRP in the closed complex [2] [fold] | fold weaker binding than wt SRP in the early complex [2] [fold] | Substance
7.41 | – | – | SecYEG translocon, cysteineless, solubilized in 0.02% DDM (from UniProt P0AGA2;P0AG96;P0AG99) (complex)
– | 6 | > 300 | SRP-FtsY complex formed with mutant SRP19/21E (early complex with GDP, closed complex with GppNHp) (from UniProt P0AGD7;P10121)
